Assay [1] deals with human 4-1BB on the surface of HEK293-Hu4-1BB cells (human) (UniProt Q07011). Put plainly: FACS on HEK293 cells highly expressing human 4-1BB.
Assay [2] has the same target. The experiment in a line: cell-based or functional assay.

human 4-1BB on the surface of HEK293-Hu4-1BB cells (human), sequence (Q07011 24-255): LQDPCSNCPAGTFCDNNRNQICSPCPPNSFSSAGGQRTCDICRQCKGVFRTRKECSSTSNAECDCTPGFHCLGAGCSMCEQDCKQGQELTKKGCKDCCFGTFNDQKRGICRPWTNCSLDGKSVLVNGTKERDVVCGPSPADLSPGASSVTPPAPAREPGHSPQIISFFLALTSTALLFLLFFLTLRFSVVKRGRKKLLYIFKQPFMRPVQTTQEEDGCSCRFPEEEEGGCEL

In assay [1], isotype IgG1 antibody gave a Maximal fluorescence value of 67. In assay [2], this substance registered an Emax, 4-1BB/NF-κB luciferase reporter, FcγRIIb cross-linking (relative to antibody-free group) of 1.12 and an Emax, 4-1BB/NF-κB luciferase reporter, no FcγRIIb cross-linking (relative to antibody-free group) of 1.1.

(Values after patent publication US20250026842A1.)
